These results are taken from US20190389958A1 (published 2019).

Test [1] concerns the target T1, human CXCR4 (human, UniProt P61073 1-352).
T1 chain: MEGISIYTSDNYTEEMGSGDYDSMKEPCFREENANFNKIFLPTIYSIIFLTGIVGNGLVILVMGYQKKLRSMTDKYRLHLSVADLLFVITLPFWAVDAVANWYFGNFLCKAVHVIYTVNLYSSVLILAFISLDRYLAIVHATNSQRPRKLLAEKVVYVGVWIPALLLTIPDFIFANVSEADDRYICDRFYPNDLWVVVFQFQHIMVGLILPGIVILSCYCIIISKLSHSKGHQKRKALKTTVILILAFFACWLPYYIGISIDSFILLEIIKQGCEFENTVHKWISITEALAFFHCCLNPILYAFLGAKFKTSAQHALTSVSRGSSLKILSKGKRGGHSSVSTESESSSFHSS
The experiment in a line: flow cytometry; Batch1. Background: Flow cytometry measures light scatter and fluorescence of single cells or particles in a stream.

Test [2] has as its target T1, human CXCR4. The experiment in a line: flow cytometry; Batch2.
Test [3] deals with T1, human CXCR4. The experiment in a line: flow cytometry; Batch1.
The target of test [4] is T1, human CXCR4. The experiment in a line: flow cytometry; Batch2.
Test [5] deals with T1, human CXCR4. The experiment in a line: flow cytometry.
Test [6] deals with T1, human CXCR4. The experiment in a line: flow cytometry; Batch1.
For test [7], the target named is T1, human CXCR4. The experiment in a line: flow cytometry; Batch2.
For test [8], the target named is T1, human CXCR4. The experiment in a line: flow cytometry.

B1: V62.1-R108H-m43-m38 (antibody, V domains shown)
VH: EVQLLESGGGLVQPGGSLRLSCAASGFTFSSYAMSWVRQAPGKGLEWVSAISGSGGGSTRYADSVKGRFTISRDNSKNTLYLQMNSLRAEDTAVYYCARQGKTRVYGYHWHGYGSTHALDYWGQGTLVTVSS
VL: EIVLTQSPGTLSLSPGERATLSCRASQSVSSSYLAWYQQKPGQAPRLLIYGASSRATGIPDRFSGSGSGTDFTLTISRLEPEDFAVYYCQQWSSDSVTFGQGTKVEIKR
One may read the EC50 as the concentration needed to bring the measured effect to its halfway point. As for B1, the EC50 was around 0.6 nM in test [1] and around 1.1 nM in test [2].

B2: V62.1-R108H-m47-m38 (antibody, V domains shown)
VH: EVQLLESGGGLVQPGGSLRLSCAASGFTFSSYAMSWVRQAPGKGLEWVSAISGSGGTRYADSVKGRFTISRDNSKNTLYLQMNSLRAEDTAVYYCARQGKTRVYGYHWHGYGSTHALDYWGQGTLVTVSS
VL: EIVLTQSPGTLSLSPGERATLSCRASQSVSSSYLAWYQQKPGQAPRLLIYGASSRATGIPDRFSGSGSGTDFTLTISRLEPEDFAVYYCQQWSSDSVTFGQGTKVEIKR
B2: the EC50 in test [3] is around 0.7 nM; in test [4], around 0.8 nM.

B3: V62.1-R108H (antibody, V domains shown)
VH: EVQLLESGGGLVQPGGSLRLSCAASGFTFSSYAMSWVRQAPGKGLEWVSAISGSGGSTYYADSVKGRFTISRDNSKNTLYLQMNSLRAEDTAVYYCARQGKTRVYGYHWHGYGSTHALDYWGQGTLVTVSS
VL: EIVLTQSPGTLSLSPGERATLSCRASQSVSSSYLAWYQQKPGQAPRLLIYGASSRATGIPDRFSGSGSGTDFTLTISRLEPEDFAVYYCQQSDYSYPFTFGQGTKVEIKR
For the molecule B3, the EC50 in test [5] is around 1.8 nM.

B4: V62.1-R108H-m80 (antibody, V domains shown)
VH: EVQLLESGGGLVQPGGSLRLSCAASGFTISPYSITWVRQAPGKGLEWVSQINSYNGKTYYADSVKGRFTISRDNSKNTLYLQMNSLRAEDTAVYYCARQGKTRVYGYHWHGYGSTHALDYWGQGTLVTVSS
VL: EIVLTQSPGTLSLSPGERATLSCRASQSVSSSYLAWYQQKPGQAPRLLIYGASSRATGIPDRFSGSGSGTDFTLTISRLEPEDFAVYYCQQSDYSYPFTFGQGTKVEIKR
In the case of B4, the EC50 in test [6] and in test [7] was around 1.2 nM throughout.

B5: V62.1 (antibody, V domains shown)
VH: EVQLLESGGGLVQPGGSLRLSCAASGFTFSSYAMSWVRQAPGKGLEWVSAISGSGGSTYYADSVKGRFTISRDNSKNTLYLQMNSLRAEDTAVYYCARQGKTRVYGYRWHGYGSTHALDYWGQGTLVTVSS
VL: EIVLTQSPGTLSLSPGERATLSCRASQSVSSSYLAWYQQKPGQAPRLLIYGASSRATGIPDRFSGSGSGTDFTLTISRLEPEDFAVYYCQQSDYSYPFTFGQGTKVEIKR
Molecule B5 gave a concentration giving a half-maximal response (EC50) in test [8] of around 2.2 nM.
